The target in data set [1] is T1, MBP-HSFA1d (Arabidopsis thaliana, UniProt Q9LQM7 1-485). Nature of the data set: EMSA.
Data set [2] concerns the target T1, MBP-HSFA1d. The data set is described as follows: competition.

T1 sequence (Q9LQM7 whole entry): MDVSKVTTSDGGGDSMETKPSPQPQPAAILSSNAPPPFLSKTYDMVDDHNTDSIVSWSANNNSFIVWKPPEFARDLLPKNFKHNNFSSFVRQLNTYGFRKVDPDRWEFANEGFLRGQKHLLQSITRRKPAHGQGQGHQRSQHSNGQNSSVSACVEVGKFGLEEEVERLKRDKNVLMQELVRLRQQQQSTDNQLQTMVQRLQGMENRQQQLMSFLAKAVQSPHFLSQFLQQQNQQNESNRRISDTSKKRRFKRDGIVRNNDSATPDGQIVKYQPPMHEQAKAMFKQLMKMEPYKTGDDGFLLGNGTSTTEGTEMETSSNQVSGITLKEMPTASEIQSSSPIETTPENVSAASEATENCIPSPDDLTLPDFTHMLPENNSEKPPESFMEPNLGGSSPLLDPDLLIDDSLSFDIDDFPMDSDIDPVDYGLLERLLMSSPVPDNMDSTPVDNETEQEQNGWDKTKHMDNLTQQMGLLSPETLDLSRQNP

B1: WIND1 promoter probe (dsDNA)
DNA 1: AATCCCTCCCTAAACCTCTAGAGAGTTCTATTAATTTTTG
DNA 2: CAAAAATTAATAGAACTCTCTAGAGGTTTAGGGAGGGATT
For the molecule B1, in the data set with MBP-HSFA1d [1], the binding result was “binds”.

B2: WIND1 unlabelled competitor (dsDNA)
DNA 1: AATCCCTCCCTAAACCTCTAGAGAGTTCTATTAATTTTTG
DNA 2: CAAAAATTAATAGAACTCTCTAGAGGTTTAGGGAGGGATT
As for B2, the binding result with MBP-HSFA1d [2] is reported as “binds”.

B3: ZAT6 promoter probe (dsDNA)
DNA 1: AATTCTTATCACTTAAGAATATTCTAGAGAGCTCTCACTT
DNA 2: AAGTGAGAGCTCTCTAGAATATTCTTAAGTGATAAGAATT
On to B3, for which, in the data set with MBP-HSFA1d [1], the binding result is “binds”.

B4: WIND1_m probe (dsDNA)
DNA 1: AATCCCTCCCTAAACCTCTATGGGACCTTATTAATTTTTG
DNA 2: CAAAAATTAATAAGGTCCCATAGAGGTTTAGGGAGGGATT
With B4, the binding result in the data set with MBP-HSFA1d [1] is listed as “no binding”.
